What was measured:
[1] = system: Pen1-XBIR3 (Penetratin1 disulfide-linked to the BIR3 domain from XIAP)
[2] = target: T1, Pen1-C6DN (Penetratin1 disulfide-linked to caspase-6 catalytic dominant negative, C285A)
T1 chain 1: RQIKIWFQNRRMKWKK
T1 chain 2: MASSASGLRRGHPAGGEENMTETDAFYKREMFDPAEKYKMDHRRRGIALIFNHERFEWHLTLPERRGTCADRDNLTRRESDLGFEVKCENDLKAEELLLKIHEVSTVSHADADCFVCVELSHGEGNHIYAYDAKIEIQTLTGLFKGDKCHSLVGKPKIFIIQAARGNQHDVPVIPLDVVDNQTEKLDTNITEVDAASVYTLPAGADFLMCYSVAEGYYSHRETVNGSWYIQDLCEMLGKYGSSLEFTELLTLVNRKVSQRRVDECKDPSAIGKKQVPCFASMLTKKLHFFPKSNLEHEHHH

[3] = system: caspase-cleaved tau (caspase-6 substrate); assay: Intranasal Pen1-C6DN prior to 1 hr tMCAo in mice; western blot for caspase-cleaved tau (anti-TauC3); type: in vivo, mouse; settings: intranasal 1 hr prior to 1 hr tMCAo, 24 hpr
From the text: To determine if a direct blockade of caspase-6 would provide protection from ischemia, a Pen1-linked caspase-6 domininat negative (Pen1-C6DN) construct was utilized. Pen1-C6DN was delivered by intransasal bolus to mice 1 hr prior to tMCAo and mice were then subjected to 1 hrMCAo followed by reperfusion. Animals were sacrificed at 24 hpr and core and penumbra regions of brain prepared for Western blotting. As depicted in FIG. 7, protein lysate from the core and penumbra regions of the stroke infarct (24 hpr) was isolated. Ipsilateral (stroked) hemispheres contained abundant caspase-cleaved tau when only treated with vehicle.
Intranasal Pen1-C6DN Prevents Cleavage of Caspase-6 Substrates. Caspase-6 catalytic dominant negative (C6DN; C285A) was isolated and purified as described previously. Denault, J. B. and G. S. Salvesen, Expression, purification, and characterization of caspases. Curr Protoc Protein Sci, 2003. Chapter 21: p. Unit 21 13. Pen1 (Q-Biogene) was mixed at an equimolar ratio with purified C6DN and incubated overnight at 37° C. to generate disulfide-linked Pen1-C6DN. Linkage was assessed by 20% SDS-PAGE and Western blotting with anti-His and anti-Caspase-6 antibodies.
Male C57BL/6 mice (2-3 months old; ≥25 g) were anesthetized using isoflurane (2%) delivered via an anesthesia mask. […]

Sequence of Pen1-XBIR3 (Penetratin1 disulfide-linked to the BIR3 domain from XIAP) (chain, as listed by the source): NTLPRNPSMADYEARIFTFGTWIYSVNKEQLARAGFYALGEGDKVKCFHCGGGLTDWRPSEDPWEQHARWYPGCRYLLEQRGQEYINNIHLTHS

Molecule: caspase-9 (rat, endogenous in brain or hippocampal neurons)
- C1-C6 processes (count of cleaved caspase-6 positive processes), intranasal delivery, 12 hpr [1]: Vehicle-12 hpr: 144.0±28.50, n=3 vs. Pen1-XBIR3-12 hpr: 102.7±23.15, n=3; p=0.3233
- C1-C6 processes (count of cleaved caspase-6 positive processes), intranasal delivery, 24 hpr [1]: Vehicle-24 hpr: 109.7±12.73, n=3 vs. Pen1-XBIR3-24 hpr: 57.33±10.04, n=3; p=0.032
- immunostaining for caspase-9 and cleaved caspase-6 at 24 hpr after convection enhanced delivery to rat striatum [1]: Pent-XBIR3 inhibited appearance of c1-C6 and caspase-9 in cell bodies and processes
- immunostaining for cleaved caspase-6 and caspase-9 at 24 hpr (FIG. 3D) [1]: The caspase-9 specific inhibitor, Pen1-XBIR3, blocks the increase in caspase-9 and the induction of c1-C6 observed at 24 hpr

B1: caspase-6 (mouse, endogenous in brain) (protein)
chain: MTETDGFYKSREVFDPAEQYKMDHKRRGVALIFNHERFFWHLTLPERRGTNADRDNLTRRFSDLGFEVKCFNDLRAEELLLKIHEVSTSSHIDADCFICVFLSHGEGNHVYAYDAKIEIQTLTGLFKGDKCQSLVGKPKIFIIQACRGSQHDVPVVPLDMVDHQTDKLDNVTQVDAASVYTLPAGADFLMCYSVAEGYYSHRETVNGSWYIQDLCEMLARYGSSLEFTELLTLVNRKVSQRRVDFCKDPDAIGKKQVPCFASMLTKKLHFCPKPSK
- caspase-cleaved tau in mouse brain lysate at 24 hpr (western blot, anti-TauC3) [2]: Pen1-C6DN reduced cleavage of caspase-cleaved tau

B2: Pen1-C6DN: Caspase-6 catalytic dominant negative (C6DN; C285A) disulfide-linked to Penetratin1 (SEQ ID NO: 11) (conjugate)
peptide: RQIKIWFQNRRMKWKK
chain: T1 chain 2
- caspase-cleaved tau in core and penumbra lysate [3]: reduced cleavage of caspase-cleaved tau

Source: patent publication US20200164026A1, “Intranasal Delivery of Cell Permeant Therapeutics” (The Trustees of Columbia University in the City of New York, priority 2010, published 2020)
